# Measurements taken from patent US20200207857A1 (SPARX BIOSCIENCE, published 2020).
# B1: Anti-CLDN 18.2-3B8 (antibody, V domains shown)
# VH: EVKLVESGGGLVKPGGSLKLSCAASGFTFSSYAMSWVRQTPEKRLEWVASISSGGSTYYPDSVKGRFTISRDNARNILYLQMSSLRSEDTAMYYCASFGYDVAMDYWGQGTSVTVSS
# VL: DVLMTQTPLSLPVSLGDQASISCRSSQSIVHSNGNTYLQWYLQKPGQSPKLLIYKVSNRFSGVPDRFSGSGSGTDFTLKISRVEAEDLGVYYCFQGSHVPFTFGSGTKLEIK
# notes: Mouse monoclonal antibody; also called monoclonal antibody 3B8
# B2: Anti-CLDN 18.2-5C9o (humanized antibody h5C9o) (antibody, V domains shown)
# VH: EVQLVESGGGLVQPGGSLRLSCAVSGYTFSMNWVRQAPGKGLEWVAWINMYTGEPTYADDFKGRFTISRDDSKNTLYLQMNSLRAEDTAVYYCARLYNGNSLDYWGQGTLVTVSS
# VL: DIQMTQSPSSLSASVGDRVTITCKSSQSLLNSGNQKSYLTWYQQKPGKAPKLLIYWASTLESGVPSRFSGSGSGTDYTLTISSLQPEDFATYYCQNAYSFPFTFGQGTKVEIK
# notes: Humanized IgG; The general method joins the variable domains to human IgG1 constant domains; Full chains are not mapped to the name; also called CLDN18.2-h5C9o
# B3: humanized anti-Claudin 18.2 antibody h5C9oao (antibody, human IgG1, kappa, V domains shown)
# VH: EVQLVESGGGLVQPGGSLRLSCAVSGYTFSMNWVRQAPGKGLEWVAWINMYTGEPTYADDFKGRFTISRDDSKNTLYLQMNSLRAEDTAVYYCARLARGNSMDYWGQGTLVTVSS
# VL: DIQMTQSPSSLSASVGDRVTITCKSSQSLLNSGNQKSYLTWYQQKPGKAPKLLIYWASTLESGVPSRFSGSGSGTDYTLTISSLQPEDFATYYCQNAYFFPFTFGQGTKVEIKR
# B4: Anti-CLDN 18.2-5C9ob (humanized antibody h5C9ob) (antibody, human IgG1, V domains shown)
# VH: EVQLVESGGGLVQPGGSLRLSCAVSGYTFSMNWVRQAPGKGLEWVAWINMYTGEPTYADDFKGRFTISRDDSKNTLYLQMNSLRAEDTAVYYCARLYNGNSLDYWGQGTLVTVSS
# VL: DIQMTQSPSSLSASVGDRVTITCKSSQSLLNSGNQKSYLTWYQQKPGKAPKLLIYWASTLESGVPSRFSGSGSGTDYTLTISSLQPEDFATYYCQNAYFFPFTFGQGTKVEIK
# notes: the general method uses human IgG1 constant domains; also called CLDN18.2-h5C9ob
# B5: h5C9o Fc mutation (antibody, V domains shown)
# VH: EVQLVESGGGLVQPGGSLRLSCAVSGYTFSMNWVRQAPGKGLEWVAWINMYTGEPTYADDFKGRFTISRDDSKNTLYLQMNSLRAEDTAVYYCARLYNGNSLDYWGQGTLVTVSS
# VL: DIQMTQSPSSLSASVGDRVTITCKSSQSLLNSGNQKSYLTWYQQKPGKAPKLLIYWASTLESGVPSRFSGSGSGTDYTLTISSLQPEDFATYYCQNAYSFPFTFGQGTKVEIKR
# B6: Anti-CLDN 18.2-5C9oag (humanized antibody h5C9oag) (antibody, human IgG1, V domains shown)
# VH: EVQLVESGGGLVQPGGSLRLSCAVSGYTFSMNWVRQAPGKGLEWVAWINMYTGEPTYADDFKGRFTISRDDSKNTLYLQMNSLRAEDTAVYYCARLARGNSIDYWGQGTLVTVSS
# VL: DIQMTQSPSSLSASVGDRVTITCKSSQSLLNSGNQKSYLTWYQQKPGKAPKLLIYWASTLESGVPSRFSGSGSGTDYTLTISSLQPEDFATYYCQNAYSFPFTFGQGTKVEIK
# notes: the general method uses human IgG1 constant domains
# B7: humanized anti-Claudin 18.2 antibody h5C9oan (antibody, human IgG1, kappa, V domains shown)
# VH: EVQLVESGGGLVQPGGSLRLSCAVSGYTFSMNWVRQAPGKGLEWVAWINMYTGEPTYADDFKGRFTISRDDSKNTLYLQMNSLRAEDTAVYYCARSSRGNGFDYWGQGTLVTVSS
# VL: DIQMTQSPSSLSASVGDRVTITCKSSQSLLNSGNQKSYLTWYQQKPGKAPKLLIYWASTLESGVPSRFSGSGSGTDYTLTISSLQPEDFATYYCQNAYFFPFTFGQGTKVEIKR
# B8: Anti-CLDN 18.2-5C9oae (humanized antibody h5C9oae) (antibody, human IgG1, V domains shown)
# VH: EVQLVESGGGLVQPGGSLRLSCAVSGYTFSMNWVRQAPGKGLEWVAWINMYTGEPTYADDFKGRFTISRDDSKNTLYLQMNSLRAEDTAVYYCARLYRGNSLDYWGQGTLVTVSS
# VL: DIQMTQSPSSLSASVGDRVTITCKSSQSLLNSGNQKSYLTWYQQKPGKAPKLLIYWASTLESGVPSRFSGSGSGTDYTLTISSLQPEDFATYYCQNAYFFPFTFGQGTKVEIK
# notes: as for B6
# B9: Anti-CLDN 18.2-5C9oai (humanized antibody h5C9oai) (antibody, human IgG1, V domains shown)
# VH: EVQLVESGGGLVQPGGSLRLSCAVSGYTFSMNWVRQAPGKGLEWVAWINMYTGEPTYADDFKGRFTISRDDSKNTLYLQMNSLRAEDTAVYYCARLARGNSMDYWGQGTLVTVSS
# VL: DIQMTQSPSSLSASVGDRVTITCKSSQSLLNSGNQKSYLTWYQQKPGKAPKLLIYWASTLESGVPSRFSGSGSGTDYTLTISSLQPEDFATYYCQNAYSFPFTFGQGTKVEIK
# notes: as for B6
# How the values were obtained:
# [1] = target: T1, human Claudin 18.2 (CLDN 18.2) expressed on HEK293 / HEK293T cells (human); assay: flow cytometry on HEK293 cells transiently transfected with GFP and human CLDN 18.2
# T1 construct: Full-length CLDN18.2 on transiently or stably transfected HEK293/HEK293T cells; also called CLD18.2
# T1 sequence (chain, as listed by the source limits assumed): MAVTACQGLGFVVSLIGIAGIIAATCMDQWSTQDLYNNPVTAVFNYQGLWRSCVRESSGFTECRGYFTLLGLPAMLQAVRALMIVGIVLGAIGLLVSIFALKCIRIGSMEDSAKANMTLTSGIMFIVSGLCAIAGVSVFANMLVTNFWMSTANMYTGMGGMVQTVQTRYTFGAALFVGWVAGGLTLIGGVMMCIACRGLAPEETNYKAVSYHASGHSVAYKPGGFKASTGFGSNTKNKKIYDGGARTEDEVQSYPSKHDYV
# Protocol: After cell detachment using 2 mM EDTA/PBS cells were washed with complete growth medium and plated at approximately 1-5×10⁵ cells/well in U-bottom microtiter plates. Cells were incubated for […]. at 4° C. with monoclonal antibody 3B8 followed by three washing steps with ice cold PBS and finally incubation with Dylight 650-conjugated secondary anti-IgG antibody. Binding was assessed by flow cytometry using a BD, Accuri™ C6 Plus. Fluorescence marker expression was plotted on the horizontal axis against antibody binding on the vertical axis. Mouse antibodies 3B8 were detected to bind specifically to the surface of fluorescence marker expressing HEK293 cells (FIG. 3, cells in Q5-UR).
# [2] = target: T1, human Claudin 18.2 (CLDN 18.2) …; assay: cell-based ELISA (InCell Elisa) on fixed HEK293_CLDN18.2 cells, OD450; Kd table under the graph, no unit in the table, unit from the x axis log[antibody] ug/ml
# [3] = target: T1, human Claudin 18.2 (CLDN 18.2) …; assay: cell-based ELISA (InCell Elisa) on formalin-fixed HEK293_CLDN18.2 cells, OD450; Kd box under the graph, no unit in the box, unit from the x axis log[antibody] nM; the curve on HEK293T cells stays flat at about 0.1
# [4] = target: T1, human Claudin 18.2 (CLDN 18.2) …; assay: cell-based ELISA (InCell Elisa) on fixed HEK293_CLDN18.2 cells, y axis RLU; Kd table under the graph, no unit in the table, unit from the x axis log[antibody] ug/ml
Binder,EC50 [1],Kd [2],Kd [3],Kd [4]
B1,1 to 2 µg/mL,,,
B2,,0.126 µg/mL,169 pM,
B3,,0.149 µg/mL,,0.154 µg/mL
B4,,0.153 µg/mL,,0.206 µg/mL
B5,,0.213 µg/mL,,0.225 µg/mL
B6,,,,0.191 µg/mL
B7,,0.168 µg/mL,,0.194 µg/mL
B8,,0.123 µg/mL,,0.184 µg/mL
B9,,,,0.18 µg/mL
